{"source": "paper PMC12312913", "assay_in_all_cases": "BLI; Octet R2; His6-tagged OMP-TF bound to rabbit anti-His mAb and tethered to ProA biosensors; analyte: crude cell lysate of J-Flag at different concentrations; PBS with 0.1% BSA and 0.01% Tween-20; double reference subtraction (buffer and TF sensor); 1:1 binding model", "key": {"[1]": {"molecular_target": "BtuB fused to TF and His tag (S. Typhimurium) (UniProt P37409)", "sequence (P37409 21-614)": "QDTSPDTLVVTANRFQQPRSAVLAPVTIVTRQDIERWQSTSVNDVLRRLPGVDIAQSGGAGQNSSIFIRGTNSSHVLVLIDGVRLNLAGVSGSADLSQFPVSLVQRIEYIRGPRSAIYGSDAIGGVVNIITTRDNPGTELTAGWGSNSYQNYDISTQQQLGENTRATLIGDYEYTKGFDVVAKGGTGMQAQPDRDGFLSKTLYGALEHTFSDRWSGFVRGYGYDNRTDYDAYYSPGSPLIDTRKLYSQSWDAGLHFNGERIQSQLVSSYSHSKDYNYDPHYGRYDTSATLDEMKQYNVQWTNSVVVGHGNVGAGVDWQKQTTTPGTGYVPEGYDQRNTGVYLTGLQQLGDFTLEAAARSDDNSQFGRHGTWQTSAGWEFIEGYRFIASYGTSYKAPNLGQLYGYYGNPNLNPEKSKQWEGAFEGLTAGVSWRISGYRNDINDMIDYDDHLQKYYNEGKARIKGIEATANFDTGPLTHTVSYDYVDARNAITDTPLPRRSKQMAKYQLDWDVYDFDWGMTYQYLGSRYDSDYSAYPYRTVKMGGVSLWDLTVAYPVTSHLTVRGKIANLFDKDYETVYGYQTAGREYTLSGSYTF"}, "[2]": {"molecular_target": "OmpX fused to TF and His tag (S. Typhimurium)"}, "[3]": {"molecular_target": "OmpC fused to TF and His tag (S. Typhimurium) (UniProt P0A263)", "sequence (P0A263 22-378)": "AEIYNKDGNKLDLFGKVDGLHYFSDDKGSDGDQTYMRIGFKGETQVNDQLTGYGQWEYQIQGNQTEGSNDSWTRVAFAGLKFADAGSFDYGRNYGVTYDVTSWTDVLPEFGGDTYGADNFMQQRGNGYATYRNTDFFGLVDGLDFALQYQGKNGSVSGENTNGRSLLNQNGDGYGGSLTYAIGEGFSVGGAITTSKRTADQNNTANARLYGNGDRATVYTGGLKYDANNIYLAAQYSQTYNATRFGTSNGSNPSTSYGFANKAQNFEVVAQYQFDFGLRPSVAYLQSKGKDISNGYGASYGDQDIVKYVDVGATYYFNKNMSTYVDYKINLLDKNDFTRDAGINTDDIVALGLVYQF"}}}
{"substance": "Gifsy-1 central tail tip J protein with Flag tag (natural protein)", "values": [{"measurement": "Kd", "setting": "[1]", "result": 0.00597, "unit": "nM"}, {"measurement": "Kd", "setting": "[2]", "result": 70, "unit": "nM"}, {"measurement": "Kd", "setting": "[3]", "result": 0.341, "unit": "nM"}]}
